Data reported in US8809529B2, “Imidazo[1,2-α]pyrazine derivatives” (Promega Corporation, priority 2010, dated 2014).

Experiments:
[1] = Stability of coelenterazines in reporter reagent buffer (T90); conditions: time for luminescent signal to decay by 10% at 22° C.; read with OgLuc variant IV lysate
[2] = biological target: T1, OgLuc variant 9B8 opt (Oplophorus gracilirostris, UniProt Q9GV45, A31E/A60K/A81I/F95Y/I117V/L99Q/M102K/N193R/P142E/Q151K/Q38R/Q45L/V71I/Y165I); experiment: Multiplex assay with red click beetle luciferase and 9B8 opt (modified DUAL-GLO); type: biochemical
T1 construct: made in house; host or cells: E. coli (crude lysate)
Protocol: A. Lysates of E. coli expressing the variant 9B8 opt were prepared as previously described in Example 27 and diluted 1000-fold in DMEM without phenol red+0.1% PRIONEX®. Luminescence from a sample containing 6.3 μg/mL of purified red click beetle luciferase and E. coli lysate expressing the variant 9B8 opt was detected using a modified DUAL-GLO® Luciferase Assay System (Promega Corp.). DUAL-GLO® STOP&GLO® Reagent containing 20 μM coelenterazine-h and DUAL-GLO® STOP&GLO® Reagent containing 20 μM PBI 3939 were used, according to the manufacturer's protocol, to detect the red click beetle luciferase and OgLuc variant 9B8 luciferase from a single sample. Three replicates were performed.
Luminescence was detected on a Turner MODULUS™ luminometer. […] The standard deviation (“+/−”) and coefficient of variance (“CV”) are also shown. A “no coelenterazine” control was performed to illustrate the amount of quenching of the red click beetle signal by the DUAL-GLO® STOP&GLO® Reagent of the DUAL-GLO® Luciferase Assay System in the absence of coelenterazine. The “no coelenterazine” control yielded a 349-fold quench.

[3] = system: HEK293 cells; experiment: Toxicity of coelenterazines in HEK293 cells (CELLTITER-GLO); conditions: 24 hrs after compound addition
[4] = biological target: T2, L27V02 enzyme (Oplophorus gracilirostris, UniProt Q9GV45, A31E/A60N/A81I/F95D/I117V/K70R/L54V/L99Q/M102K/N193R/P142E/Q151K/Q38R/Q45L/V71I/Y165I); experiment: Luminescence of compounds with purified L27V02 enzyme; type: biochemical; conditions: 20 μM compound, 36 pM L27V02, pH 7, 3 min
T2 construct: The N-terminus of the OgLuc variant L27V is methionine, valine and phenylalanine, i.e., MVF; made in house
T2 sequence (Q9GV45 28-196 with tags or gaps with the stated changes limits assumed, one chain of several): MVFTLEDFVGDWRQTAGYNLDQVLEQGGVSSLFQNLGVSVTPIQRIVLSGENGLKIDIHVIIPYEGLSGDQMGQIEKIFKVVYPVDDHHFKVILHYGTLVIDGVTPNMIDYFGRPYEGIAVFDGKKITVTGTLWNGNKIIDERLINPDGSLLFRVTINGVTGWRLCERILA
Protocol: Compounds PBI-4525, PBI-4540 and PBI-4541 were screened for their ability to detect luminescence. […] The assay reagent was then mixed with 36 pM purified L27V02 enzyme (described in Example 25B), in DMEM without Phenol Red and 0.1% PRIONEX®. As a control, assay buffer with 20 μM PBI-3939 or PBI-4528 was used. Luminescence was measured as previously described 3 min after the assay reagent was added to the enzyme mixture.

[5] = system: CRE; experiment: CRE transcriptional reporter, bulk transfection, NIH3T3 cells; type: cell-based
Protocol: (§1) The transcriptional reporter containing […] and 9B8 opt-P was used in the bulk transfection of HeLa cells
(§2) HEK293, NIH3T3, or HeLa cells were plated to a single well of a 6-well tissue culture plate the day before transfection at a density of 4.5×10^5 cells/well in 3 mL complete medium (DMEM+10% FBS+1×NEAA+1× sodium pyruvate) for HEK293 cells, 3×10^5 cellsNvell in 3 mL complete medium (DMEM+10% fetal calf serum (FCS)+1×NEAA+1× sodium pyruvate) for NIH3T3 cells, or 9.9×10^5 cells/well in 3 mL complete medium (DMEM+10% FBS+1×NEAA) for HeLa cells. Cells were grown overnight at 37° C.
(§3) 3,300 ng of reporter plasmid DNA in 155 4 OPTI-MEM® was mixed with 9.9 μL FUGENE® HD transfection reagent, vortexed briefly, and incubated at room temperature for 10 min. The CRE transcriptional reporters were used to transfect HEK293 and NIH3T3 cells. The HRE transcriptional reporters were used to transfect HeLa cells. The reporter mixture was added to cells and mixed by gentle rocking followed by incubation at 37° C. for 6 hrs (HEK293 and NIH3T3) or 3 hrs (HeLa). Cells were then trypsinized and resuspended in medium (DMEM+10% FBS+1×NEAA+1× sodium pyruvate for HEK293 cells, DMEM+10% FCS+1×NEAA+1× sodium pyruvate for NIH3T3 cells, or DMEM+10% FBS+1×NEAA for HeLa cells), followed by plating to the individual wells of a 96-well plate (20,000 cells/100 μL for HEK293, 10,000 cells/100 4 for NIH3T3, or […] for HeLa) and incubated at 37° C. overnight.
(§4) FSK (CRE stimulator) or 17-AAG (HRE stimulator; 17-Allylamino-demethoxy geldanamycin) in OPTI-MEM® was added to the cells (10 nM or 10 μM final concentration for FSK; 1 nM or 1 μM final concentration for 17-AAG) and incubated at 37° C. for 4 hrs (FSK) or 6 hrs (17-AAG). Plates were removed from the incubator and allowed to equilibrate to room temperature for 25 min. Cells were lysed with 100 μL lytic reagent as described above for the forward transfection. Luminescence was measured on a GLOMAX® Luminometer.

[6] = system: CRE; experiment: CRE transcriptional reporter, bulk transfection, HEK293 cells; type: cell-based, human
Protocol: as §1, §2, §3, §4

[7] = system: heat shock response element (HRE); experiment: HRE transcriptional reporter, bulk transfection, HeLa cells; type: cell-based
Protocol: as §1, §2, §3, §4

[8] = system: cAMP response element (CRE); experiment: CRE transcriptional reporter, forward transfection, HEK293 cells; type: cell-based, human; design: Response: scale not given here; conditions: for baseline: 10 nM FSK; for baseline / RLU (10 μM FSK): 3 h
Protocol: HEK293 cells were plated at 15,000 cells/well in six 96-well tissue culture plates. Cells were grown in 100 μL of DMEM+10% FBS+1× non-essential amino acids (NEAA) and incubated overnight at 37° C. The cells were transiently transfected with either 10 ng or 100 ng plasmid DNA/well of pGL4.29 9B8 opt, pGL4.29 9B8 opt-P, or pGL4.29. Plasmid DNA was mixed with 850 μL of OPTI-MEM® (Invitrogen) and 32.4 μL of FUGENE® HD transfection reagent (Promega Corp.) and incubated at room temperature for 10 min. Eight μL of the transfection/reporter DNA mixture was added to the appropriate wells (2 constructs/plate). Cells were incubated for 4 hrs at 37° C. The medium was replaced with OPTI-MEM®+0.5% dialyzed FBS+1×NEAA+1× sodium pyruvate+1× Penn-Strep and incubated overnight at 37° C.
A lytic reagent containing 100 mM MES pH 6.1, 1 mM CDTA, 150 mM KCl, 35 mM thiourea, 2 mM DTT, 0.25% TERGITOL® NP-9 (v/v), 0.025% MAZU® DF 204, and 20 μM PBI-3939 was added to the cells containing pGL4.29 9B8 opt or pGL4.29 9B8 opt-P and allowed to incubated for 10 min at room temperature (100 μL lytic reagent added to 100 μL cells). ONE-GLO™ assay reagent (Promega Corp.) was added to cells containing pGL4.29 and used according to the manufacturer's protocol (100 μL reagent added to 100 μL cells). Luminescence was measured on a GLOMAX® Luminometer.

[9] = system: antioxidant response element (ARE); experiment: ARE transcriptional reporter, reverse transfection, HEK293 cells; type: cell-based, human; conditions: 24 h, 100 ng DNA
[10] = system: antioxidant response element (ARE); experiment: as above; type: cell-based, human; conditions: for baseline: 24 h, 100 ng DNA
Protocol: HEK293 cells were trypsinized (T75 flask, 3 mL trypsin) and resuspended in […] (approximately 8.9×10^6 total cells) in medium containing DMEM+10% FBS+1×NEAA. Each transcriptional reporter was prepared for transfection by mixing 1.2 mL OPTI-MEM®, 12 μL transcription reporter DNA (100 ng) and 36 μL FUGENE® HD transfection reagent together and incubated at room temperature for 35 min. Following incubation, 624 μL of the transfection/reporter DNA mixture was added to 12 mL of cell suspension and mixed by inversion. After mixing, 100 μL of the cell/DNA mixture was added to wells of a 96-well plate (2 constructs/plate). The cells were incubated at 37° C. for 22 hrs. Tert-butylhydroquinone (a Nrf2 stabilizer; tBHQ; 1 μM (“baseline”) or 20 μM) or sulphoraphane, (an organosulfer antioxidant known to activate Nrf2; 1 μM (“baseline”) or 20 μM) in OPTI-MEM® was added to each well and incubated at 37° C. for 24 hrs. Cells were lysed with 100 μL lytic reagent as described above for the forward transfection. Luminescence was measured on a GLOMAX® Luminometer.

coelenterazine-h [Coelenterazine h, reference compound]
Stability (pH 8) (T90 in hrs) [1]: 2.1 hrs | Ogluc (average luminescence generated by 9B8 opt) ([2]; 20 μM substrate in DUAL-GLO STOP&GLO Reagent): 921,440 | +/− coel ([2]; Ogluc signal relative to no coelenterazine control): 64 | Viability (normalized to vehicle (DMSO) control) (%) [3]: 100%

Cn1ccnc1CC1=NC2=C(Cc3ccccc3)NC(c3ccccc3)(c3ccc(O)cc3)CN2C1=O (centres unmarked) [PBI-4540, 8-benzyl-6-(4-hydroxyphenyl)-2-((1-methyl-1H-imidazol-2-yl)methyl)-6-phenylimidazo[1,2-a]pyrazin-3(7H)-one]
RLU [4]: 909 RLU

B1: 9B8 opt-P: 9B8 opt further comprising the PEST protein degradation sequence (protein)
chain: MVFTLEDFVGDWRQTAGYNLDQVLEQGGLSSLFQKLGVSVTPIQKIVLSGENGLKIDIHVIIPYEGLSGYQMGQIEKIFKVVYPVDDHHFKVILHYGTLVIDGVTPNMIDYFGRPYEGIAVFDGKKITVTGTLWNGNKIIDERLINPDGSLLFRVTINGVTGWRLCERILANSHGFPPEVEEQAAGTLPMSCAQESGMDRHPAACASARINV
baseline ([5]; NIH3T3, 10 nM FSK, 4 h): 410,461 | RLU (10 mM FSK) ([5]; NIH3T3, 4 h): 3,720,000 RLU | Response ([5]; NIH3T3, FSK): 9 | baseline ([6]; HEK293, 10 nM FSK, 4 h): 3,960,000 | RLU (10 mM FSK) ([6]; HEK293, 4 h): 460,000,000 RLU | Response ([6]; HEK293, FSK): 116 | Response ([7]; 17-AAG): 12 | RLU (1 mM 17-AAG) ([7]; 6 h): 3,204,000 RLU | baseline ([7]; 6 h): 278,118 | Response ([8]; 10 ng DNA for transfection): 121 | baseline ([8]; 10 ng DNA for transfection): 11179 | RLU (10 μM FSK) ([8]; 10 ng DNA for transfection): 1,353,459 RLU | Response ([8]; 100 ng DNA for transfection): 168 | baseline ([8]; 100 ng DNA for transfection): 122,071 | RLU (10 μM FSK) ([8]; 100 ng DNA for transfection): 20,544,753 RLU | RLU (20 μM sulphoraphane) [9]: 3,940,000 RLU | RLU (20 μM tBHQ) [9]: 8,460,000 RLU | baseline ([10]; 1 μM sulphoraphane): 258,406 | baseline ([10]; 1 μM tBHQ): 317,238 | Response ([10]; sulphoraphane): 15 | Response ([10]; tBHQ): 27
